Results taken from the DeepSol protein solubility set.

Test: soluble on expression in E. coli; label from the status in PepcDB or PDB records

Sequence | soluble on expression in E. coli
MSLEGVENKVIVLAGMIGAGKSSYTELIANELGTKAFYESIKDNRILEMFYDDPKRWAFALQIYFLNTRFRSIKAALTDQNNVLDRSIYEDALFTQINFEEGNISEPEMDTYLDLLDNMMEELAYMPKKAPDLLIYLRGSLDTVLSRIALRGRPYEQIDDNPGLLEYYKHLHSRYDSWFASYDKSETLVINIDEIDINKPNDADYVMQLIHEKLKREGHHHHHH | soluble
LNHETITKRTLLSSLMETNSLNYPNQVKLSERLAELYGASFGIGVSKKGNQHWFNISMNIVNDHYLQDSQVLAEAVDFLKEIIFAPNIQAGQFEAETFQREKENLKAYLESIVED | not soluble
MISVVIPAKDEVGNIGPLMKEICQALQGVTEFEILVVDDGSQDDTFGEVIHTAELMLCNAKAIRHERSTGQSTAISTGVLHARGQYIVTLDADGQNDPADIPAMLAQLPQIHAEHFCIAGYRKNRKDTAWKRFQSRFANKVRDALLHDGVPDTGCGLKLFPRETFLRMPYFDHMHRYIPALVRRMGGEVFISVVNHRDRQLGVSKYTAWNRVWVGIVDIMGVIWLGRRAKIAKVARSETRWHDLEHHHHHH | soluble
EVKLVESGGGLVLPGGSLRLSCATSGFTFTDYYMTWVRQPPGKALEWLGFIGNKANDYTTEYSASVKGRFTISRDDSQSILYLQMSTLRAEDRATYYCATVYGNYPYFDVWGVGTTVAVSSATTTAPSVYPLVPGCSDTSGSSVTLGCLVKGYFPEPVTVKWNYGALSSGVRTVSSVLQSGFYSLSSLVTVPSSTWPSQTVICNVAHPASKVDLIKEISGP | soluble
HHHHHHMAGMAMDLGGYLTRIGLDGRPRPDLGTLHAIVAAHNRSIPFENLDPLLGIPVADLSAEALFAKLVDRRRGGYCYEHNGLLGYVLEELGFEVERLSGRVVWMRADDAPLPAQTHNVLSVAVPGADGRYLVDVGFGGQTLTSPIRLEAGPVQQTRHEPYRLTRHGDDHTLAAQVRGEWQPLYTFTTEPRPRIDLEVGSWYVSTHPGSHFVTGLTVAVVTDDARYNLRGRNLAVHRSGATEHIRFDSAAQVLDAIVNRFGIDLGDLAGRDVQARVAEVLDT | soluble
MNCEKCNQNPATIQLYMNINGKRVEMPLCASCYAEVRNQANFGSNEFPGASGSPFDDIFRQLSGAANQANREQRSQANAQVQTQTAGGGNGILDEFGTNLTDMAKNEQLDPVIGRDKEIKRVIEILNRRNKNNPVLIGEPGVGKTAVVEGLANAIVAGDVPSKLMNKEVILLDVASLVSGTGIRGQFEERMKQLIKELQERKNTILFIDEVHTIVGAGSAEGSMDAGNILKPALARGDLQMIGATTLKEYRTIEKDAALERRFQPVTVSEPSTKETLTILNGLKPKYEDFHEVVYSPEALTAAVELSARYIQDRHLPDKAIDLMDEVGSKYNLSIEKLDENTVSERVARLEDEKNQALQMEDYEKAAKVRDEITRLEENKTSNSFSERPVIQASDIQAIIEEKTGIPVGRLQEDEQSKMKNLERNLTGKVIGQEDAVKKVAKAIRRSRVGLKSKNRPIGSFLFVGPTGVGKTELGRTLARELFGTSEAMIRLDMSEFMEKHSISKLIGSPPGYVGHEEAGQLTEKVRRNPYSIILLDEIEKAHPDVQHMFLQILEDGRLTDSQGRTVSFKDTVIIMTSNAGATDTEASVGFNTTTETKLEKGSDILAKLGAYFKPEFLNRLDSVIEFKSLEKDDLVQIIDLMLVDLNEMLAQEGVTIDVSKEVKEHLIDLGYDPKFGARPLRRTIQEHLEDTIADSLIDQPEAKNLVATLNDNKEITITEQVTA | not soluble
MGSDKIHHHHHHMIIDAHIHCSGDEKVDDVLQALDQAQVDKAVVLAPFLSGPYSMHDSASLRSANQYLSRLIGHHTDRLIGFAVINPSLEGACQDLVSAHELGLHGLKMVPAGWYPYDDCARDVYETAARLKIPILFHSGIFIDGKSGRFCRPSFYEAIRDYPDLRVTLAHLGWPWSDEANAVGLIDLINGVPPDNSQFRFDISFGAPPVYRLEVLRKAIDVLTPDLLQFGSDVFLPCSADLIKSRIDEVLMLLERLEVDKSSRDRIMGGTAAAWLGIN | not soluble
MGSDKIHHHHHHMTSPSPDQVIRQEILALSAYHVPPAKDMVKLDAMENPYRLPPFLCEEISRIAADTSINRYPDPHAAALKEVLSTTLSVPAGMEIMLGNGSDEIIQIIMLAAAKPEAKLLTIEPGFAMFKMIATFANMQYIGIPLKPDFSLDIDRMLAAIERHQPSVIFLAYPNNPSGNLFDTSALEKIIEISPGLVVIDEAYHPFAGKSFIGRLADYPNLLVMRTLSKLGLAGLRLGLLAGRPEWLSHLEKLRLPYNVNVITQLVATKIMQHYDVLQQQADAIRQTRTRLRTFLENLNGIEVFPSNANFILFRLDGASQIFRLLQQHGILVKNLDNSHPLLKNCLRVTVGTPEENDRFCNTLQDLIAGN | not soluble
MSLAQDVVVGVSWSNFQEERWKTDEAAIKAELESKGAKYISADAQSSSAKQLSDVESLIAQGATALIILAQDAQAIGPAVQAAADEGIPVVGYDRLIEDSRAFYLTFDNVEVGRMQARAVLEAAPSGRYVMIKGSPTDPNADFLRGGQQEVLQAAIDKGDITIVGEAYTDGWLPANAQRNMEQILTATDNGVDAVVASNDGTAGGVVAALTAQGMEGLPVSGQDGDHAALNRVAKGTQTVSVWKDARDLGRAAARIAVSLAEGTQMNAIGGADDWTSPGGTKMNAMFLEPLPITKDNLSVVVDAGWITQETLCQGVTNGPAPCNEGHHHHHH | soluble
MGCVPRIEFGCSSQSLTLSWNLRAWNLCRLNTISHFQKLPYPLVASTRKHYKNSLLLKRFLVGVGTEESSLSEDLLDESLSRPLTSDELKSLLIDTERSKLVKKLSEANQQNRFLKRQEHEITNIKTELALMELEVQALVKLAEEIANLGIPQGSRKISGKYIQSHLLSRLDAVQKKMKEQIKGVEAAQSKEVHVFWIGMAESVQVMGSFDGWSQREDLSPEYSALFTKFSTTLFLRPGRYEMKFLVDGEWQISPEFPTSGEGLMENNVLVVE | soluble
MAVCSLVAKITYAEERQQNNYPIILVNGFAGWGREEMLGVKYWGGVHDIQEDLKRNGYTVHTAAVGPVSSNWDRACELYAQINGGTVDYGAAHAEKHGHKRFGRTYSGFAPNWSETNKIHLVGHSMGGQTIRTLVQLLKEGSYEEKNYVKNHPNTKISPLFEGEKSYVHSVTTLATPHNGTTLADGSLLLPFVKDLLITAASFGGNDNLSLYDFKLDQWGLKKNTGESFFQYSNRILNSSIWKNTKDISQWDLSTDGAKELNNWVKTQLNVYYLSYSGHASQAAPITGLHLPHITMNKVLMGNAFFLGSYARYEENRPLIDTTWWQNDGVVNTSSMIAPSSNATVNNNESLQIGKWNHIETKANWDHLDMVGLSVSDTLGFSSIQEFYRAIAEKLSRLPK | not soluble
MAKNPKDGESRTFLISVAAELAGMHAQTLRTYDRLGLVSPRRTSGGGRRYSLHDVELLRQVQHLSQDEGVNLAGIKRIIELTSQVEALQSRLQEMAEELAVLRANQRREVAVVPKSTALVVWKPRR | soluble
MSLDKPVIQIHTDNSSLIFRVADNGRLYQSYLGKKLNHEADISHLPQGTEAYITHGMEDYFEPAIHILHNDGNPSLLLKYVSHETKAVSQGVNETIITLGDDKYPVTVKLHYVTYPAEDIIKTYTEISHKEKKPVVLHQYASSMLHLNRAKYYLTEFSGDWAHEANISDQPLEFGKKVLDTKLGARANMFTPPFFQLSLDQLATENCGEVLVGTLGWTGNFRFTFEVDNKNELRIISGINPYASEYYLPAGVVFRTPDFYFTYSANGKGKASRNFHDWARRYQLKDGDETRMTLLNNWEATYFDFNEEKLIGLIGDAAGLGVDMFLLDDGWFANKYPRSSDHQGLGDWDETADKLPNGIGRLVEEATKKGIKFGLWIEPEMVNPKSELYEKHKDWVIHLPNRDEYYFRNQLVLDLSNPKVQDFVFGVVDDLMTKYPGIAFFKWDCNSPITNIYSSYLKEKQSHLYIDYVRGLYNVLERIKTKYPDLPMMLCSGGSGRIDYETLRYFTEFWPSDNTDPIERLFIQWGYSQLFPAKTLCAHVTTWNHDASIKFRTDVAMMGKLGFDIKLSDLNDNEKKFCRDAVTNYNHLKPVVLEGDMYRLVSPYSGNHTSTQYVGKDKKGAVVFAFDIYSRYGEKLLPVRLQGLDAGRQYRVKEINLMPGTNSSLQGNGELFSGEYLMTVGLNIFTGQRLNSRVIEVVAEEGHHPITTDPNSSSVDKLAAALEHHHHHH | soluble
ALSGECADEIFGGYPWFMRKEMIYANTFPWSRFVNERISLLSDDLKSINLQEYVDARYKENLNNVPVSDEDSPYAKRMRELFYLNIKWFMITLLTRKDRMSMANSLEVRVPFADYRLVEYAFNIPPEIKFLNGREKGILRKAFEGVLPQDVIERKKSPYPKTFDPRYTALVQKWLKKVVEDKTSPILDIIDLKTVNELIETGGSSYKTPWFGQLMKGPQLIAYLLQVNFWLKEY | not soluble
MSLLRSLRVFLVARTGSYPAGSLLRQSPQPRHTFYAGPRLSASASSKELLMKLRRKTGYSFVNCKKALETCGGDLKQAEIWLHKEAQKEGWSKAAKLQGRKTKEGLIGLLQEGNTTVLVEVNCETDFVSRNLKFQLLVQQVALGTMMHCQTLKDQPSAYSKGFLNSSELSGLPAGPDREGSLKDQLALAIGKLGENMILKRAAWVKVPSGFYVGSYVHGAMQSPSLHKLVLGKYGALVICETSEQKTNLEDVGRRLGQHVVGMAPLSVGSLDDEPGGEAETKMLSQPYLLDPSITLGQYVQPQGVSVVDFVRFECGEGEEAAETE | soluble
MGHHHHHHGGHMSLKIYVVYDSEGEHTKVLAEAIAEGARENDAAEVFIDHVDQADIRKLKDMDAIIWGCPGHFGTISSGLKTWIDRLGYLWAEGELINKVGAVFCTTATTHGGLEMTMHNLITPMFHQGMIVVGLPGNVPENALYGSYYGAGVTCPVDSDELMSEEGIQLGRALGRRVSQVTGNLTAGQEGGS | soluble
MNELIGFVNGNSVRQKVLSLLASKGEMEGKRISKTLRVVYPTIAKTLEELEEKNLISKKEEIYFLTETGTKIEKMVQQI | not soluble
MKSIRSRKSRRLRANRRKKRVHQPKLRQKPAKASQSRSRRMSRTDYISENVYIVLVYPKYQGNIGAVARSMWNSGLRHLIIIGNRPDDEAFARSMGGRFILENAEIYDDFASVISRFNVIAATSSTASSNEKHFRRLPLTPEKFWEEMSDQGGKIALVFGREDDGLRNEEIEKCNYFINIPGNPEYPVYNLSHAVAIILYVMFTRFNPPENIEIRAIEPDHEDLMLRNIIEVMRLTSYPEHKIRNTELLLRRLIARSRMSDREYFRMMGVIRRVKESLQRPLENESDHQRN | not soluble
MFIDTLIEKIREKDNPSVVGLDPKIEYVPSFIKEDMYKKYGKNLKAVAEAILLFNKYIIDAVYDIVPAVKPQLAYYEMYGLEGMRVFYETCKYAKEKGLLVIADGKRNDIGSTAQCYSAAYLGKTDIDEGISEAVFDVDALTVNPYLGVDGIKPFIDDCVKYNKGIFVLVKTSNKSSGEIQDILTQEGRSIYEIVAEYVESWGENKKGKYGYSCVGAVVGATYPNLAKILRKILKNSYILVPGYGAQGGTARDVAHCFNYDGLGAIVNASRSIMCAYKSEQWKNVYSEEKFYEASRAEAIRMRDDINSALRDRK | not soluble
HSQRVIRELDEHGFWSAMIPQWEHIRGRMPRESVHIHTIDVHSMVVTANCATQSIRVARPDLLFLAALFHDIGKGYGRRHEEVGAEFVVDMATTLRLNPSDTQIVETLVAQHTIIPHIVGRYNPTSTEAIDKLLDAVNYDLLTLDLLEALVEADAQGTAPGVWSAVLRYGTRELCAQARQR | not soluble
